Test results from publication PMC4325844 (Molecular Biology of the Cell, 2015).

Molecular target: GST–PAR3-2N (UniProt Q9Z340 252-697)
Assay: pull-down

Chain of GST–PAR3-2N (Q9Z340 252-697): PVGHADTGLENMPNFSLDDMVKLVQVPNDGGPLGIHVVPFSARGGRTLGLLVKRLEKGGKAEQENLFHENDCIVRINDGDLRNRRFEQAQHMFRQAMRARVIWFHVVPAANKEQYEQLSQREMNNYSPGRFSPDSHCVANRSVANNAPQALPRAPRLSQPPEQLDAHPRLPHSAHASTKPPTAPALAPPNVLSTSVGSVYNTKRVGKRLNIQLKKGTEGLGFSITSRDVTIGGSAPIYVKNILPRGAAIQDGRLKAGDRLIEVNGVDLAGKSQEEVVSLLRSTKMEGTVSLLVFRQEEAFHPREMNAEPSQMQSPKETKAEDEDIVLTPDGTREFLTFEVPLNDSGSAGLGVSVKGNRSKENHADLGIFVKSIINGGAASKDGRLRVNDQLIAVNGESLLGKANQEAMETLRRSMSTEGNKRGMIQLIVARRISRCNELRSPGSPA

B1: MBP–CLASP2-N2 (domain or fragment, UniProt O75122 310-670, looked up)
chain: SSGSVASLPQSDRSSSSSQESLNRPFSSKWSTANPSTVAGRVSAGSSKASSLPGSLQRSRSDIDVNAAAGAKAHHAAGQSVRSGRLGAGALNAGSYASLEDTSDKLDGTASEDGRVRAKLSAPLAGMGNAKADSRGRSRTKMVSQSQPGSRSGSPGRVLTTTALSTVSSGVQRVLVNSASAQKRSKIPRSQGCSREASPSRLSVARSSRIPRPSVSQGCSREASRESSRDTSPVRSFQPLASRHHSRSTGALYAPEVYGASGPGYGISQSSRLSSSVSAMRVLNTGSDVEEAVADALKKPARRRYESYGMHSDDDANSDASSACSERSYSSRNGSIPTYMRQTEDVAEVLNRCASSNWSER
Kd: ~6 nM
